Results published in US20210324076A1 (AMPHIVENA THERAPEUTICS, published 2021).
Residue numbers refer to the chain shown, from its start. Where “and” joins values, the source holds several entries; their conditions need not be identical. Identical values can stand only once.

B1: CD33/CD3 2×2 T-cell engager 18 (bispecific antibody)
chain: EVQLVESGGGLVQPGGSLRLSCAASGFTFSTYAMNWVRQAPGKGLEWVGRIRSKYNNYATYYADSVKDRFTISRDDSKNSLYLQMNSLKTEDTAVYYCARHGNFGNSYVSYFAYWGQGTLVTVSSGGSGGSQSVLTQPPSVSGAPGQRVTISCTGSSSNIGAGYDVHWYQQLPGTAPKLLIYGNSNRPSGVPDRFSGSKSGTSASLAITGLQAEDEADYYCQSYDSSLSDVVFGGGTKLTVLGGSGQVQLVQSGAEVKKPGESLKISCKGSGYSFTSYWIGWVRQMPGKGLEWMGIIYPGDSDTRYSPSFQGQVTISADKSISTAYLQWSSLKASDTAMYYCARHKRGSDAFDIWGQGTTVTVSSGGSGGSDIQMTQSPSSLSASVGDRVTITCRSSTGAVTTSNYANWVQQKPGKAPKALIGGTNKRAPGVPSRFSGSLIGDKATLTISSLQPEDFATYYCALWYSNLWVFGQGTKVEIKAAAGSHHHHHH
notes: Homodimer; His-tagged form
B2: CD33/CD3 2×2 T-cell engager 12 (bispecific antibody)
chain: DIQMTQSPSSLSASVGDRVTITCRSSTGAVTTSNYANWVQQKPGKAPKALIGGTNKRAPGVPSRFSGSLIGDKATLTISSLQPEDFATYYCALWYSNLWVFGQGTKVEIKGGSGGSQVQLVQSGAEVKKPGASVKVSCKASGYTFTSYDINWVRQAPGQGLEWMGWMNPNSGNTGFAQKFQGRVTMTRDTSTSTVYMELSSLRSEDTAVYYCARDRAVTDYYYGMDVWGQGTLVTVSSGGSGQSVLTQPPSASGTPGQRVTISCSGSRSNIGSNTVNWYQQLPGTAPKLLIYGNNQRPSGVPDRFSGSKSGTSASLAISGLQSEDEADYYCATWDDSLIGWVFGGGTKLTVLGGSGGSEVQLVESGGGLVQPGGSLRLSCAASGFTFSTYAMNWVRQAPGKGLEWVGRIRSKYNNYATYYADSVKDRFTISRDDSKNSLYLQMNSLKTEDTAVYYCARHGNFGNSYVSYFAYWGQGTLVTVSSAAAGSHHHHHH
B3: CD33/CD3 2×2 T-cell engager 14 (bispecific antibody)
chain: B2 chain with V218N, Y221F, Y222S
B4: CD33/CD3 2×2 T-cell engager 16 (bispecific antibody)
chain: B2 chain with V218N, Y222S, Y223L

Columns and labels:
human CD3 [1] = molecular target: T1, human CD3 (human, UniProt P07766 23-207; P09693 23-182; P04234 22-171; P20963 22-164); experiment: flow cytometry titration on human CD3+ T cells/Jurkat, anti-His detection
T1 construct: whole, on cells; also called hu CD3; CD3 on human T cells
T1 sequence (P07766 23-207, chain 1 of 4): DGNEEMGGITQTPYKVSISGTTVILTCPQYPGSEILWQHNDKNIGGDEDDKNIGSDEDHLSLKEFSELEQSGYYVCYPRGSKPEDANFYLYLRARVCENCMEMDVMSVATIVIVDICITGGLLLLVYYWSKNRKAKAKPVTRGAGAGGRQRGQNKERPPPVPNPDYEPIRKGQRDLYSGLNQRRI
T1 sequence (P09693 23-182, chain 2 of 4): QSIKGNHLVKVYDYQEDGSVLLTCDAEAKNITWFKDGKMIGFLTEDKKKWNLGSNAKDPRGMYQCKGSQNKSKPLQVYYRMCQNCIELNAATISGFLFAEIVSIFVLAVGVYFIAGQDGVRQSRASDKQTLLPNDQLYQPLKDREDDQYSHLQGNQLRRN
T1 sequence (P04234 22-171, chain 3 of 4): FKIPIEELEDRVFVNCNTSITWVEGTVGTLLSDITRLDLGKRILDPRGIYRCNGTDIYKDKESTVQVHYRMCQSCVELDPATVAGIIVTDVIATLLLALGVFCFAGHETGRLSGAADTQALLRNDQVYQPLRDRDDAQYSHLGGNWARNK
T1 sequence (P20963 22-164, chain 4 of 4): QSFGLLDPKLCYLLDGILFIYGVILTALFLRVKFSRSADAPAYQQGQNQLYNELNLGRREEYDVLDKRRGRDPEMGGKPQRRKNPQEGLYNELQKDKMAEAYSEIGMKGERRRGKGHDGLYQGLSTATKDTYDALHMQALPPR
Description: Cells were incubated with 100 μL of serial dilutions of CD33/CD3 2×2 T-cell engagers. After washing three times with FACS buffer the cells were incubated with 0.1 mL of […] mouse monoclonal anti-His antibody in the same buffer for 45 min on ice. After a second washing cycle, the cells were incubated with 0.1 mL of […] FITC-conjugated goat anti-mouse IgG antibodies under the same conditions as before. As a control, cells were incubated with the anti-His IgG followed by the FITC-conjugated goat anti-mouse IgG antibodies without anti-CD33 2×2 T-cell engagers. […] The fluorescence of 1×10⁴ living cells was measured using a Beckman-Coulter FC500 MPL flow cytometer using the MXP software (Beckman-Coulter, Krefeld, Germany) or a Millipore Guava EasyCyte flow cytometer using the Incyte software (Merck Millipore, Schwalbach, Germany). Mean fluorescence intensities of the cell samples were calculated using CXP software (Beckman-Coulter, Krefeld, Germany) or Incyte software (Merck Millipore, Schwalbach, Germany). After subtracting the fluorescence intensity values of the cells stained with the secondary and tertiary reagents alone the values were used for calculation of the KD values with the equation for one-site binding (hyperbola) of the GraphPad Prism (version 6.00 for Windows, GraphPad Software, La Jolla Calif. USA). […]

human CD33 [2] = molecular target: T2, human CD33 (human, UniProt P20138 18-364); experiment: cell-based or functional assay
T2 sequence (P20138 18-364): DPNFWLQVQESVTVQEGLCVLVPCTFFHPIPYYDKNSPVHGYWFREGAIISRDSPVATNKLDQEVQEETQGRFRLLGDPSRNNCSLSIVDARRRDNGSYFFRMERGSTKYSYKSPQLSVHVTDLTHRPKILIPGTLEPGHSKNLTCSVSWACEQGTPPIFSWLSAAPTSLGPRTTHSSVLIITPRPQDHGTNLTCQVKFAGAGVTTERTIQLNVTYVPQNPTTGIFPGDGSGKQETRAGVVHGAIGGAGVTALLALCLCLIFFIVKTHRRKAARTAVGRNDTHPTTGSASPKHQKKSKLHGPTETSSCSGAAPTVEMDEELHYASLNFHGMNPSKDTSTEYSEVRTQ

human CD3 [3] = molecular target: T1, human CD3; experiment: cell-based or functional assay
human CD33 [4] = molecular target: T2, human CD33; experiment: cell-based or functional assay; remark: listed apart in the source
human CD33 [5] = molecular target: T2, human CD33; experiment: cell-based or functional assay; remark: listed apart in the source
human CD33 [6] = molecular target: T2, human CD33; experiment: cell-based or functional assay; remark: listed apart in the source

Binder	Kd (human CD3 [1])	IC50 lysis of KG-1 cells with human T cells, E:T 5:1, 24 h (human CD33 [2])	CD25 Induction EC50 (PBMC, 24 h) (human CD3 [3])	CD69 Induction EC50 (PBMC, 24 h) (human CD3 [3])	EC50 cytotoxicity on HL-60, E:T 5:1, 20-24 h (human CD33 [4])	EC50 cytotoxicity on KG-1, E:T 5:1, 20-24 h (human CD33 [4])	EC50 cytotoxicity on U-937, E:T 5:1, 20-24 h (human CD33 [4])	EC50 cytotoxicity, mean of HL-60, U-937, KG-1 (human CD33 [4])	EC50 on HL-60 (cytotoxicity) (human CD33 [5])	EC50 calcein-release lysis of HL-60, E:T 25:1, 30 min (human CD33 [6])	EC50 calcein-release lysis of HL-60, E:T 25:1, 60 min (human CD33 [6])	EC50 calcein-release lysis of HL-60, E:T 25:1, 120 min (human CD33 [6])	EC50 calcein-release lysis of HL-60, E:T 25:1, 180 min (human CD33 [6])	EC50 calcein-release lysis of HL-60, E:T 25:1, 240 min (human CD33 [6])	EC50 calcein-release lysis of HL-60, E:T 25:1, 300 min (human CD33 [6])	IC50 lysis of KG-1 cells (separate experiment) (human CD33 [2])
B1	11900 pM															
B2		~0.01 pM	6 pM	3 pM	1.3 pM and 137 pg/mL	1.2 pM and 126 pg/mL	0.8 pM and 84 pg/mL	1.1 pM and 116 pg/mL								
B3			10 pM	7 pM	1.6 pM and 168 pg/mL	2.6 pM and 273 pg/mL	3.6 pM and 378 pg/mL	2.6 pM and 273 pg/mL	11.6 pM							
B4		~0.5 pM	1 pM	2 pM	1.5 pM and 158 pg/mL	1.8 pM and 189 pg/mL	1.9 pM and 200 pg/mL	1.7 pM and 179 pg/mL		4.8 pM	2.5 pM	1.6 pM	1.6 pM	1.5 pM	1.6 pM	5 pM
